Laboratory results published in the supplement of paper PMC9732359.
± gives the uncertainty stated by the source.

Experiment: protein stability index of a GFP-peptide fusion (yeast GPS) (PSI 1-4); higher = more stable; sorted into four equal gates, so the index is relative within each strain
In short: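 The protein stability index of a peptide was calculated by multiplying its read frequency in each gate by that gate's number and adding the products. The peptides were tiled 17-residue stretches of yeast proteins, fused downstream of GFP on a Cherry-expressing plasmid and carried in yeast as a pooled library. Mid-log cultures in leucine-free medium were sorted into four equal gates by GFP/Cherry ratio, and each gate's plasmids were PCR-amplified and Illumina-sequenced.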

GVKNNLLTPKSGEPIIA [RPO31]
protein stability index (ubr1∆): 2.62 ± 0.22

KDILVKTGITKKDEDEE [PRE9]
protein stability index (doa10∆): 3.37 ± 0.09 | protein stability index (pdr5∆): 3.27 ± 0.087 | protein stability index (san1∆): 2.58 ± 0.23 | protein stability index (ubr1∆): 3.17 ± 0.14

MLNLIDDVKNILNAKYT [RPN6]
protein stability index (doa10∆): 2.85 ± 0.18 | protein stability index (pdr5∆): 2.57 ± 0.09 | protein stability index (san1∆): 2.86 ± 0.061 | protein stability index (ubr1∆): 2.86 ± 0.068

TPNTNSNSTPNANQQFL [SWI1]
protein stability index (doa10∆): 3.11 ± 0.054 | protein stability index (pdr5∆): 3.15 ± 0.047 | protein stability index (san1∆): 2.93 ± 0.053 | protein stability index (ubr1∆): 3.1 ± 0.035

NTNPSPLKTQTKNGTPN [GAL11]
protein stability index (doa10∆): 2.91 ± 0.059 | protein stability index (pdr5∆): 2.9 ± 0.05 | protein stability index (san1∆): 2.58 ± 0.049 | protein stability index (ubr1∆): 2.94 ± 0.04

LTKAQKYLDQVLDHQRA [RPL17B]
protein stability index (doa10∆): 3 ± 0.096 | protein stability index (pdr5∆): 2.96 ± 0.092 | protein stability index (san1∆): 3.03 ± 0.079 | protein stability index (ubr1∆): 2.98 ± 0.042

ELMKLDGTEYVLSSVRE [MED6]
protein stability index (doa10∆): 3.36 ± 0.083 | protein stability index (pdr5∆): 3.27 ± 0.08 | protein stability index (san1∆): 3.16 ± 0.048 | protein stability index (ubr1∆): 3.15 ± 0.05

ILEDDFAVALKNEPDYS [CDC53]
protein stability index (doa10∆): 3.3 ± 0.088 | protein stability index (pdr5∆): 3.09 ± 0.14 | protein stability index (san1∆): 3.24 ± 0.072 | protein stability index (ubr1∆): 2.87 ± 0.12

YNRHKLQELIVNGPNVH [RPO31]
protein stability index (doa10∆): 1.19 ± 0.11 | protein stability index (pdr5∆): 1.48 ± 0.1 | protein stability index (san1∆): 1.2 ± 0.17 | protein stability index (ubr1∆): 1.22 ± 0.095

MSVPAIAPRRKRLADGL [DIS3]
protein stability index (doa10∆): 3.37 ± 0.095 | protein stability index (pdr5∆): 3.18 ± 0.11 | protein stability index (san1∆): 3.26 ± 0.078 | protein stability index (ubr1∆): 3.11 ± 0.063

GSIPSLTTQFVTDKYTA [YDL088C/ASM4]
protein stability index (doa10∆): 2.54 ± 0.08 | protein stability index (pdr5∆): 2.54 ± 0.066 | protein stability index (san1∆): 2.46 ± 0.087 | protein stability index (ubr1∆): 2.58 ± 0.079

DDSFSLLRIQMLLCVSY [PCI8]
protein stability index (doa10∆): 2.1 ± 0.042 | protein stability index (pdr5∆): 2.05 ± 0.045 | protein stability index (san1∆): 2.08 ± 0.052 | protein stability index (ubr1∆): 2.42 ± 0.034

NLGIPKIAYRGVKDCQE [SSN2]
protein stability index (doa10∆): 1.49 ± 0.2 | protein stability index (pdr5∆): 1.58 ± 0.19 | protein stability index (san1∆): 1.54 ± 0.26 | protein stability index (ubr1∆): 1.13 ± 0.16

ARRTLQKLGLDETYKGV [RPL5]
protein stability index (pdr5∆): 2.97 ± 0.18 | protein stability index (san1∆): 3.43 ± 0.14

AARHKQHEQGTFEKHDR [RRI2]
protein stability index (doa10∆): 3.02 ± 0.067 | protein stability index (pdr5∆): 3.04 ± 0.23 | protein stability index (ubr1∆): 2.96 ± 0.14

NSFYYTSLLYLSTLEPS [RPN9]
protein stability index (doa10∆): 1.82 ± 0.05 | protein stability index (pdr5∆): 1.56 ± 0.046 | protein stability index (san1∆): 1.47 ± 0.1 | protein stability index (ubr1∆): 1.77 ± 0.041

LIDSLPGVDVSAEEQLR [SRB7]
protein stability index (doa10∆): 2.59 ± 0.064 | protein stability index (pdr5∆): 2.23 ± 0.055 | protein stability index (san1∆): 1.96 ± 0.068 | protein stability index (ubr1∆): 1.84 ± 0.043

GHNDWVSQVRVVPNEKA [ASC1]
protein stability index (doa10∆): 2.3 ± 0.1 | protein stability index (pdr5∆): 2.85 ± 0.076 | protein stability index (san1∆): 2.94 ± 0.066 | protein stability index (ubr1∆): 2.69 ± 0.065

DNETPSKKTSPKATSSA [YOR098C/NUP1]
protein stability index (doa10∆): 2.1 ± 0.05 | protein stability index (pdr5∆): 2.52 ± 0.049 | protein stability index (san1∆): 2.41 ± 0.064 | protein stability index (ubr1∆): 3.026 ± 0.029

FVEEQNVYVLPKNLLKK [PRP8]
protein stability index (doa10∆): 2.54 ± 0.056 | protein stability index (pdr5∆): 2.5 ± 0.045 | protein stability index (san1∆): 2.54 ± 0.07 | protein stability index (ubr1∆): 2.87 ± 0.059

MDETQTRAKIGGLNDPR [RPO21]
protein stability index (doa10∆): 2.8 ± 0.1 | protein stability index (pdr5∆): 2.24 ± 0.11 | protein stability index (san1∆): 2.3 ± 0.1 | protein stability index (ubr1∆): 1.85 ± 0.22

QTLSSHLEALQPLFSTV [PGD1]
protein stability index (doa10∆): 1.96 ± 0.031 | protein stability index (pdr5∆): 1.97 ± 0.037 | protein stability index (san1∆): 2.2 ± 0.052 | protein stability index (ubr1∆): 2.49 ± 0.034

EALLRSLLDAEEERRKK [SNF2]
protein stability index (doa10∆): 2.87 ± 0.15 | protein stability index (pdr5∆): 2.62 ± 0.094 | protein stability index (san1∆): 2.27 ± 0.17

KYPARRIHTNDNDIMNL [SSN3]
protein stability index (doa10∆): 2.83 ± 0.074 | protein stability index (pdr5∆): 3.06 ± 0.072 | protein stability index (san1∆): 2.98 ± 0.077 | protein stability index (ubr1∆): 2.9 ± 0.059

SKASMQKEQNVNNRDSE [YCS4]
protein stability index (doa10∆): 2.78 ± 0.069 | protein stability index (pdr5∆): 2.98 ± 0.067 | protein stability index (san1∆): 2.05 ± 0.076 | protein stability index (ubr1∆): 2.77 ± 0.042

ENYDDTELRQLFQENDD [DSN1]
protein stability index (doa10∆): 2.23 ± 0.072 | protein stability index (pdr5∆): 2.63 ± 0.077 | protein stability index (san1∆): 2.6 ± 0.096 | protein stability index (ubr1∆): 2.55 ± 0.13

MNTTLGSIGSRKYSFNY [YAR002W/NUP60]
protein stability index (doa10∆): 1.75 ± 0.06 | protein stability index (pdr5∆): 2.29 ± 0.066 | protein stability index (san1∆): 1.87 ± 0.095 | protein stability index (ubr1∆): 1.41 ± 0.041

GKISKPRFLNKQERSKQ [PRP28]
protein stability index (doa10∆): 1.9 ± 0.088 | protein stability index (pdr5∆): 2.46 ± 0.13 | protein stability index (san1∆): 3.33 ± 0.11 | protein stability index (ubr1∆): 2.13 ± 0.088

NDKSEVLKVYSMINNSN [SRB8]
protein stability index (doa10∆): 2.9 ± 0.077 | protein stability index (pdr5∆): 2.91 ± 0.07 | protein stability index (san1∆): 2.86 ± 0.075 | protein stability index (ubr1∆): 2.63 ± 0.071

IGIVDYEAGASHGNPVV [FAS1]
protein stability index (doa10∆): 3.01 ± 0.068 | protein stability index (pdr5∆): 2.99 ± 0.064 | protein stability index (san1∆): 3.03 ± 0.063 | protein stability index (ubr1∆): 3.19 ± 0.04

APVEVQEDFEVVEEFTP [RPS5]
protein stability index (doa10∆): 3.31 ± 0.076 | protein stability index (pdr5∆): 3.21 ± 0.08 | protein stability index (san1∆): 3.02 ± 0.049 | protein stability index (ubr1∆): 2.94 ± 0.062

GRRLNIRQYALATAHIY [SSN8]
protein stability index (doa10∆): 1.53 ± 0.055 | protein stability index (pdr5∆): 1.32 ± 0.057 | protein stability index (san1∆): 1.17 ± 0.17 | protein stability index (ubr1∆): 1.09 ± 0.067

KVQDAIEEEIFDDSSRI [LIN1]
protein stability index (doa10∆): 3.07 ± 0.1 | protein stability index (pdr5∆): 3.19 ± 0.11 | protein stability index (san1∆): 3.16 ± 0.081 | protein stability index (ubr1∆): 3.06 ± 0.069

GTQQSNMYTSTQKTELE [SIR4]
protein stability index (doa10∆): 2.96 ± 0.049 | protein stability index (pdr5∆): 3.12 ± 0.047 | protein stability index (san1∆): 2.95 ± 0.048 | protein stability index (ubr1∆): 3 ± 0.053

QFYVKRWKRFTIGAIFL [CDC53]
protein stability index (doa10∆): 2.81 ± 0.076 | protein stability index (pdr5∆): 2.94 ± 0.093 | protein stability index (san1∆): 3.08 ± 0.099 | protein stability index (ubr1∆): 2.04 ± 0.055

AISTGAKIDVMLTIARL [RPN7]
protein stability index (doa10∆): 3.31 ± 0.16 | protein stability index (pdr5∆): 3.23 ± 0.099 | protein stability index (san1∆): 3.33 ± 0.054 | protein stability index (ubr1∆): 3.38 ± 0.075

NLPPHYALFLKALRRKI [SSN2]
protein stability index (doa10∆): 2.15 ± 0.11 | protein stability index (pdr5∆): 1.79 ± 0.095 | protein stability index (san1∆): 2.8 ± 0.22 | protein stability index (ubr1∆): 1.7 ± 0.087

DESTIKRIKPNTEITQK [ECM29]
protein stability index (doa10∆): 2.88 ± 0.051 | protein stability index (pdr5∆): 2.96 ± 0.053 | protein stability index (san1∆): 2.95 ± 0.046 | protein stability index (ubr1∆): 2.91 ± 0.044

LKVLSEHLDCMNFISKE [PCI8]
protein stability index (doa10∆): 2.72 ± 0.09 | protein stability index (pdr5∆): 3.14 ± 0.099 | protein stability index (san1∆): 3.2 ± 0.047 | protein stability index (ubr1∆): 3.03 ± 0.061

ESINNVVDQLWSEISNE [RPN2]
protein stability index (doa10∆): 2.77 ± 0.065 | protein stability index (pdr5∆): 2.94 ± 0.053 | protein stability index (san1∆): 2.83 ± 0.096 | protein stability index (ubr1∆): 2.63 ± 0.041

KPWFATVNGQARDLATM [FAS1]
protein stability index (doa10∆): 3.01 ± 0.11 | protein stability index (pdr5∆): 3.08 ± 0.1 | protein stability index (san1∆): 3 ± 0.083 | protein stability index (ubr1∆): 3.05 ± 0.064

LLLKLASPHASVRTAVF [ECM29]
protein stability index (doa10∆): 1.88 ± 0.048 | protein stability index (pdr5∆): 1.87 ± 0.043 | protein stability index (san1∆): 1.57 ± 0.063 | protein stability index (ubr1∆): 1.49 ± 0.029

LLVQKRFKYAPGTIVLY [RPS3]
protein stability index (doa10∆): 2.51 ± 0.12 | protein stability index (pdr5∆): 1.87 ± 0.073 | protein stability index (san1∆): 1.72 ± 0.13 | protein stability index (ubr1∆): 1.31 ± 0.039

RAVANRTDATFIRVIGS [RPT1]
protein stability index (doa10∆): 3.22 ± 0.1 | protein stability index (pdr5∆): 3.26 ± 0.069 | protein stability index (san1∆): 3.17 ± 0.082 | protein stability index (ubr1∆): 3.09 ± 0.062

GCVNSLISGPRNQILVS [YMR129W/POM152]
protein stability index (pdr5∆): 1.36 ± 0.22

REKNALKRLAWQYIVID [ISW2]
protein stability index (doa10∆): 2.1 ± 0.099 | protein stability index (pdr5∆): 1.74 ± 0.14 | protein stability index (san1∆): 1.76 ± 0.12 | protein stability index (ubr1∆): 2.03 ± 0.082

RNFDTHENYIQDDDFPL [MCD1]
protein stability index (doa10∆): 2.92 ± 0.06 | protein stability index (pdr5∆): 2.8 ± 0.053 | protein stability index (san1∆): 2.85 ± 0.048 | protein stability index (ubr1∆): 2.91 ± 0.045

IRFVCLSNCLANARDFG [BRR2]
protein stability index (doa10∆): 2.09 ± 0.053 | protein stability index (pdr5∆): 1.81 ± 0.052 | protein stability index (san1∆): 1.72 ± 0.074 | protein stability index (ubr1∆): 2.24 ± 0.044

QVNIRFLLHNSEIIDTN [SRB8]
protein stability index (doa10∆): 2.17 ± 0.059 | protein stability index (pdr5∆): 2.71 ± 0.057 | protein stability index (san1∆): 2.79 ± 0.055 | protein stability index (ubr1∆): 2.7 ± 0.04

KKVVIVKPHDEGSKSHP [RPL27A]
protein stability index (doa10∆): 2.87 ± 0.081 | protein stability index (pdr5∆): 2.86 ± 0.066 | protein stability index (san1∆): 2.82 ± 0.093 | protein stability index (ubr1∆): 3.04 ± 0.057

STTMDGANDLGFTASVS [MED1]
protein stability index (doa10∆): 3.08 ± 0.092 | protein stability index (pdr5∆): 3.1 ± 0.061 | protein stability index (san1∆): 3.07 ± 0.072 | protein stability index (ubr1∆): 2.99 ± 0.081

NRDPVKHAEFDLSLLGY [SIR2]
protein stability index (pdr5∆): 2.75 ± 0.21

NDITNLQLSKTPLSIKI [SRB8]
protein stability index (doa10∆): 2.58 ± 0.062 | protein stability index (pdr5∆): 2.52 ± 0.069 | protein stability index (san1∆): 2.81 ± 0.056 | protein stability index (ubr1∆): 2.77 ± 0.051

SNSAGTSLFGSSSAQQT [YJL041W/NSP1]
protein stability index (doa10∆): 3.15 ± 0.069 | protein stability index (pdr5∆): 3.08 ± 0.079 | protein stability index (san1∆): 3.12 ± 0.073 | protein stability index (ubr1∆): 3.17 ± 0.052
